Data reported in article PMC2425476 (Nucleic Acids Research, 2008).
Where two headings read alike, the source gives them in different places.

B1: 30 nt/55 nt p/tDNA (mixed)
DNA 1: TGAGCGTTTTTCCTGTTGCAATGGCTGGCGGTAATATTGTTCTGGATATTACCAG
DNA 2: CTGGTAATATCCAGAACAATATTACCGCCA
modifications: 5' amino linker on template (S2)
B2: γ subunit of the E. coli clamp loader (γ complex) (natural protein)
chain: MSYQVLARKWRPQTFADVVGQEHVLTALANGLSLGRIHHAYLFSGTRGVGKTSIARLLAKGLNCETGITATPCGVCDNCREIEQGRFVDLIEIDAASRTKVEDTRDLLDNVQYAPARGRFKVYLIDEVHMLSRHSFNALLKTLEEPPEHVKFLLATTDPQKLPVTILSRCLQFHLKALDVEQIRHQLEHILNEEHIAHEPRALQLLARAAEGSLRDALSLTDQAIASGDGQVSTQAVSAMLGTLDDDQALSLVEAMVEANGERVMALINEAAARGIEWEALLVEMLGLLHRIAMVQLSPAALGNDMAAIELRMRELARTIPPTDIQLYYQTLLIGRKELPYAPDRRMGVEMTLLRALAFHPRMPLPEPEVPRQSFAPVAPTAVMTPTQVPPQPQSAPQQAPTVPLPETTSQVLAARQQLQRVQGATKAKKE

Assays:
[1] = target: T1, δW279Y-γ complex;β clamp (Escherichia coli;Escherichia coli, UniProt P06710-2;P28630;P28631;P28905;P28632;P0A988 1-431;1-343;1-334;1-147;1-137;1-366, W279Y|); assay: fluorescence anisotropy
[2] = target: δW279A/R283A-γ complex;β clamp (Escherichia coli;Escherichia coli, UniProt P06710-2;P28630;P28631;P28905;P28632;P0A988 1-431;1-343;1-334;1-147;1-137;1-366, W279A;R283A|); assay: fluorescence anisotropy
[3] = target: δW279A/R277A-γ complex;β clamp (Escherichia coli;Escherichia coli, UniProt P06710-2;P28630;P28631;P28905;P28632;P0A988 1-431;1-343;1-334;1-147;1-137;1-366, R277A;W279A|); assay: fluorescence anisotropy
[4] = target: γ complex (clamp loader, γ3δδ'χψ), wild type;β clamp (Escherichia coli;Escherichia coli, UniProt P06710-2;P28630;P28631;P28905;P28632;P0A988 1-431;1-343;1-334;1-147;1-137;1-366, |); assay: fluorescence anisotropy
[5] = target: δW279A-γ complex;β clamp (Escherichia coli;Escherichia coli, UniProt P06710-2;P28630;P28631;P28905;P28632;P0A988 1-431;1-343;1-334;1-147;1-137;1-366, W279A|); assay: fluorescence anisotropy
[6] = target: T1, δW279Y-γ complex;β clamp; assay: fluorescence anisotropy; remark: listed apart in the source
[7] = target: the molecule itself

Binder | Kd [1] [nM] | binding result [2] | binding result [3] | Kd [4] [nM] | Kd [5] [nM] | Kd [6] [nM] | binding result [7]
B1 | ~800 | no binding | no binding | 60 ± 10 | 590 ± 80 | 159 ± 15 | 
B2 |  |  |  |  |  |  | binds
